Reference: the DeepSol protein solubility set

assay: soluble on expression in E. coli; label from the status in PepcDB or PDB records

Sequence | soluble on expression in E. coli
GPGSMSSKEELAALMASDGDFEKKISLLKKAVVTVTKQKKEVEARQTQLQGELSTATQQLAEAQRANAALQRKVKSLEAQQEQERSSGSAFGQNMLKGLSSIMGNSDSANRGGARGERGSAGDRLSLSPEDVERLISENEQLHRQIYAFKTKLEDVQHSSAKDTERLKSEVARLQRETQELRRSLEANTATGDRLRADYLTERALGDFCRHFFVATLLRPQQERESFLTGTTVEVRWPAKGPSSNSAAAAFSDSLPAVVSERVTLALQSAAGTVKTLLRGVSVLAVVLQEQLPSRERATVGDLECLRDRLSVFLEAHTAKKDSLMYLLEQLDSQLSAVQHADEEGGSAPVSADAFVEAQGNIVQLVLEWVGLLRTQLPLLVESCVAILPHGNSYTMYTAHVSAGTGDGAAEPRKTTTERGEFVEEVTRHGYATLASIEGSLTAMRMLVERSPTAYYRCYNNGNRGGALPEPPTTKETLNFTSSLEATQPPMDLSSLLALQQFWWEGCTSVRSLRASILALNSGLVNVAEACNKSEIRDALNYLCKCLEAIAAASEEMYGSPRLAPADADAAIAALVPDALAPRTPAHAPPSEASSWALRPRTAIATSSTLTAEGVRDTAYADKYEELLVALSAADRAAASYYTQMNYLYVEMAEKEDALQTALEAVAHLQQLIVAERAEAKHTRQALQSQISLLSTQLVEMAGAPAAQTPQ | not soluble
MGSDKIHHHHHHMNKELETLIMSAVDLPTIPVVATKVIELIEQEDVTIEKLATAVSSDPAVAARILKLSNSAYYGCQRQINTLSAAIMLLGFKTLKSLVIAASLKQLNRRFGLTEKMLWEHSVGAALAGRVIATQGRFINEETGFLVGLFHDLGKTIMSNRDPQKFQGVMMRCYNEGIPFAEAERSVYPYSHAEVGALVIRKWNFPESLSTAIMHHHQFGSAPITDQYDLFLTATASLANKFCKKLGIGDRDADDDLNLTNAPEAMLLGFTSDTAEKALATFQETFEENKSFFLND | not soluble
MSLADAPDNLLGAYLRDRREKLDPAALGLPSTRRRTPGLRREEVAQRAHVSTAWYTWMEQGRGGAPSADVLDRLARALLLDDAEREHLFLLGVGHPPEVRYHASGGVTPRLQHVLDAMDASPAIVRTATWDVVAWNAAAAATLTDYATLPPAARNILRLIFVDPRVRDAQPNWDRVARFAVGAFRADIARGGATQAVQAFIDEMRATSAEFDALWRDHDIRSHDEGTKEIRHPHAGRITLEYSAFAVIGRADLSLVIFTPTTAADRASIRSLVAAREQARAAQAPAMEGHHHHHH | soluble
MFKHIISCLLLISATSALAAEKPTLTVYTYDSFAADWGPGPAIKQAFEAECDCQLKFVALEDGVSLLNRLRMEGKNSQADVILGLDNNLVQAAEQTGLFTPSQVDTRNLTLPEPWQNKTFVPYDYGYFAFVYNKEKLKNPPKSLHELISSKEPWKVIYQDPRTSTPGLGLMLWMQKVYGDQAPQAWQQLAQKTVTVTKGWSEAYGLFLKGEADLVLSYTTSPAYHLIAEKNNNYAAADFSEGHYLQVEVAGQLAASKQPELAQRFMQFIVTPAFQNHIPTGNWMYPVIKMDLPAGFETLAVPQTALQFDAKDVADNRSKWIQAWQSAVSR | not soluble
MGSDKIHHHHHHMQLAQARNDNGERFVLVIEDDPTQARRLDDVNSVHALALTALDRKVGLAALIKEWPGDARVDAVALADKGQLLAPLDHPDPAHLLVTGTGLTHLGSAEGRDKMHRQMNEADQSDQPLTDSMKMFRKGLEGGKPAPGDFGVQPEWFYKGDGGIVMAPGEALRMPHFALDGGEEPEVAGLYLIDNDGVPRRIGYALGNEFSDHVTERENYLYLAHSKLRACSFGPTLLIDELPDDVQGTSRIRRGDEVLWEKPFISGEANMCHTLANLEAHHFKYAQFCRPGDVHVHFFGTATLSFSDGIIPQPGDVFEIDAKPFALPLRNPLSKDAVAPAPSVKPL | not soluble
DSKDTRQFVKSIAKDAHRIGQDNDIYASVMIAQAILESDSGRSALAKSPNHNLFGIKGAFEGNSVPFNTLEADGNKLYSINAGFRKYPSTKESLKDYSDLIKNGIDGNRTIYKPTWKSEADSYKDATSHLSKTYATDPNYAKKLNSIIKHYQL | not soluble
MCLIVFAWQPGHALPLLVAANRDEFYARPSLPLAAWEDAEGVFAGRDLEAGGTWLGLGPAGRFAALTNVRDPSQALGKRSRGELVADFLRGGGNPADYLAQVAGRAADYSGFNLLIGDRHQLWHYNPRVGPPRLLPAGIYGLSNAALDTPWPKLLKARAALAERLAEPHPQALLELLADAAPAADGQLPDTGVGLATERLLSSVFIASPSYGTRASSVVRVHADGTREMIERSFGPSGARLGEVSLVLPPGLEHHHHHH | not soluble
MAVPPAYADLGKSAKDIFNKGYGFGMVKLDVKTKSASGVEFKTSGSSNTDTSKVVGSLETKYKRSEYGLTFTEKWNTDNTLGTEINIEDQIAKGLKLTFDTTFSPNTGKKSGKVKTAYKREFVNLGCDVDFDFAGPTIHGAAVVGYEGWLAGYQMSFDTAKSKMTQNNFAVGYKTGDFQLHTNVNDGSEFGGSIYQKVSDKLETAVNLAWTAGSNSTRFGIAAKYQLDKDASISAKVNNTSLVGVGYTQSLRPGIKLTLSALVDGKSINSGGHKLGLGLELEA | not soluble
EKAEDCWELQISPELLAHGRQKILDLLNEGSARDLRSLQRIGPKKAQLIVGWRELHGPFSQVEDLERVEGITGKQMESFLKANILGLAAGQ | soluble
MRHNIKFKSKGTLKIRNTAQISLWKKCSDSMIADQTYLFINRVQDRRFDEESLRILELSLVAMNVKSFLEVRSRLRDFMRSESVVIFGELTGESMVAKLSVLEFFARAFALLGDMESCLAMRYEALNLRQLKSPSCLWLGVSHSEWTKFAVQSMENGFPSIAGKASENALLSLKKDSLIEPKSEDNSDILDAAEKVRRLRDSAASLTSSHSGIFIYIVSSLKFAVCNRLLTTF | soluble
MGQNSSQIPEHELEHLSIESGLSRGGILKLYGRFISLATHRDKTTNEYFLTKGDFQSIAELKQNPLGDRIIDAFFADAEVLERRKVYFKDFVKVLSHFRPINKNKPHPWNSREAKLRFAFTMYDLNKSGTITKDEFQDILAMMIGVGVPKDQVNSIADRTMREADRDGDGFITFQEFCNAMEKTDIEQKMSFRFLT | not soluble
MERNMKNKNKMLDLMLEAVNNIKDAMPKMQIGAPVRQNIDAGERPCLQGYYTAAELKPVLDRPPQDSNAPGASGKAFKTTNLSVEEQKEKERGEAKHCFNAFASDRISLHRDLGPDTRPPEYVEEYLLFILYHQALQGREG | not soluble
MRDPFMEALGLKVLHLAPGEAVVAGEVRADHLNLHGTAHGGFLYALADSAFALASNTRGPAVALSCRMDYFRPLGAGARVEARAVEVNLSRRTATYRVEVVSEGKLVALFTGTVFRLGGDGDDVPAGTGNLAPREA | soluble
MYTLLLVDDEERMLDLLELYLAPNGYRCVKRRSGAEAIDYLRRHHADLVLLDVMMPELDGWETCRRIRSFSNVPIMMVTARDETADIVQGLKIGADDYVTKPFDEAELLARIEAVLRRTAGGRSAIRAAGLVWDEEEHTVRYEDKPIALTPKEFAILGLLLKHPNQVFSRGQIIASLWGYLADTEERTVDSHMKNIREKLRKAGFPADEYLQTVWGVGYKWEGRKS | soluble
MSLTLRDVAAEAGVSPMTASNALRGKPGVKESTRAKVIAAAKKLNYRINLTASMLKSGRSNIIHVIVNEFDSPFYSKLTQALSNEIVSRGLIPFIEQTQYSPDAAEHALSSNPFSGQLFDGEILHATGLGTNVPLSKLNGGRPFVLLDACEETPTVDAVNFPNEEAERAAMQHLIDRGCRNIAIVGHRFAPRADLAHAQNAFALRLRGACGALSDAGLPYDESMVFEAGDVANGIIAGHAIAERILAARSGHGGTEFDGACCANDFAAFGVIRGLADRGLRVPQDVKVIGFDGVTSGSYTTPALSTIQVDFMQLAKFSVDMLSERIDHGADEALPPRRAIIGYQLVDRESTAEGHHHHHH | soluble
MAQVKTQRLYYSLKDYFKEKYGKRVQKITVALPFTCPNRDGTKGRGGCTYCYDGSKPSMLSPVIPLEVQIKEGIERAKKKYGEDIYFTIYYQSYTNTYADIETLKKVYDTALKFEGVVGIDVGTRPDCAPEEVLDLLEYYANKGLEVWVEYGLQSANFETLKKINRQHGVSDFVDAVLRTKKRNLKVCAHMIIGLPGETREDFIETAKLIASLPIDGIKIHPLHVIKGTVMEKQYLNEEFKTLTLEEYAEYCADVIELLPPDMVVHRITGETDEERLIAPEWCTFKYKNAVIQKVRETLERRGTYQGARYPFYKYGVLEHHHHHH | soluble
MAGDPMKSSQYPAQDLKRRVLAWAVKLKVNPRAVRVQDMHRKWGSCSSTGTITLASDLLDQEQRFQDYVIVHELLHLRFATHGRMFKALMSAYVPGWRAMEGMGQHRICRKYRSTRSTVLEHHHHHH | not soluble
MNIDTREITLEPADNARLLSLCGPFDDNIKQLERRLGIEINRRDNHFKLTGRPICVTAAADILRSLYVDTAPMRGQIQDIEPEQIHLAIKEARVLEQSAESVPEYGKAVNIKTKRGVIKPRTPNQAQYIANILDHDITFGVGPAGTGKTYLAVAAAVDALERQEIRRILLTRPAVEAGEKLGFLPGDLSQKVDPYLRPLYDALFEMLGFEKVEKLIERNVIEVAPLAYMRGRTLNDAFIILDESQNTTIEQMKMFLTRIGFNSKAVITGDVTQIDLPRNTKSGLRHAIEVLADVEEISFNFFHSEDVVRHPVVARIVNAYEAWEEAEQKRKAALAAERKREEQEQK | soluble
MTSAPMSNPSSTSSVVTAAMLAIGDELLSGRTKDKNIGHLADVLTMSGIDLKEVRIVADEEESIVEALNALRSRYDYVFTSGGIGPTHDDITADAISAAFGLPCEHDAEALRLLGDMYRVREMEFTEARKRMARMPKGAAHIANPVSVAPGFVIGNVYVMAGVPQVFQAMLDNVMPTLRTGAKVMSQAVRSPYGEGDIGTPLTAIQKAHPETSIGSYPKYDGQRFSTEIVVRARDAGLLKAATEAVAAMIEAIGQEKQLAASKGDATA | not soluble
VEVESFLVHPGDLLQLRCRLRDDVQSINWLRDGVQLAESNRTRITGEEVEVQDSVPADSGLYACVTSSPSGSDTTYFSVNVSDALP | soluble
MEDVWLQAQSNLAKVLTHQTFTTWIEPIRFAGAHKNTLLLEAPNQFIRDRVRESYLPMILESVRSLTDSHFQVELQVAARQQEKTAKSPRKSHTEDELGPVESEKCAPAEFSTNLNAKYTFDTFVCGGSNQFAHAAALSVANNPAGKYNPLFIYGGVGLGKTHLLTAIGNQVLTKNRKARVCFYTSEKFMNELINCLRYQKMEQFRNKFRKMDLLLIDDIQFIAGKERTQEEFFHTFNALYESHKQIVVTSDKFPKDIPGLEERLRSRFEWGLIADIQPPDTETKVAILSKKADSDGIRLPDDVALFLASSASTNVRELEGMLIRLGAVASLTGKNITLDMAREVLKDIIVDKTKEVTVEMIQKYVADHFNIKVAELKSDKRLKALVVPRQIAIYLCRDLTKASYPDIGEKFGGKDHSTIIHSVKKVDKLLSQDFELKSTIETLRKGLLNLEHHHHHH | soluble
MGSDKIHHHHHHMTRILLRNKLDECLAAWQKAGFSVLAPVKRHEMSCFGEVQKSGDMALDLVLTERTIKDQFFPQTEPLIKYRIGKQQIDSETMTPPEKKRVFFGVRPCDASGLAIDDPLFGWDYKDDYWFRRREKSVIVTIACAQADDFCMCTSVKLSPDSTKGADVMLRPLSDGSGWQVEAVSDRGTALVDTVSSLLQESSAEAAPVPQVAEKFDVEKVMEWLADKENFESQFWKDIALRCVGCGSCTFLCPTCHCFDIQDEGDTYQGIRRKNWDSCSFPLFTMHTSGHNPRNTQSTRWRQRIMHKFNYYRGKFGVNSCSGCGRCTRQCPVDMGITETLQAITNLPR | not soluble
